The chains are these.
B1: human IgG2 anti-mouse CD40 surface displayed antibody, H268D (antibody, name in EU numbering)
light chain (with the P2A rest): DTVLTQSPALAVSPGERVTISCRASDSVSTLMHWYQQKPGQQPKLLIYLASHLESGVPARFSGSGSGTDFTLTIDPVEADDTATYYCQQSWNDPWTFGGGTKLELKRTVAAPSVFIFPPSDEQLKSGTASVVCLLNNFYPREAKVQWKVDNALQSGNSQESVTEQDSKDSTYSLSSTLTLSKADYEKHKVYACEVTHQGLSSPVTKSFNRGECGSGATNFSLLKQAGDVEENPG
heavy chain: EVQLVESDGGLVQPGRSLKLPCAASGFTFSDYYMAWVRQAPTKGLEWVASISYDGSSTYYRDSVKGRFTISRDNAKSTLYLQMDSLRSEDTATYYCGRHSSYFDYWGQGVMVTVSSASTKGPSVFPLAPCSRSTSESTAALGCLVKDYFPEPVTVSWNSGALTSGVHTFPAVLQSSGLYSLSSVVTVPSSNFGTQTYTCNVDHKPSNTKVDKTVERKCCVECPPCPAPPVAGPSVFLFPPKPKDTLMISRTPEVTCVVVDVSDEDPEVQFNWYVDGVEVHNAKTKPREEQFNSTFRVVSVLTVVHQDWLNGKEYKCKVSNKGLPAPIEKTISKTKGQPREPQVYTLPPSREEMTKNQVSLTCLVKGFYPSDIAVEWESNGQPENNYKTTPPMLDSDGSFFLYSKLTVDKSRWQQGNVFSCSVMHEALHNHYTQKSLSLSPGKLEPPPSTVSNMATVAVLVVLGAAIVTGAVVAFVMKMRRRNTGGKGGDYALAPGSQTSDLSLPDCKVMVHDPHSLA
notes: m1 with this Fc mutation (Eu numbering); copies: 2 + 2
B2: human IgG2 anti-mouse CD40 surface displayed antibody, H268K (antibody, name in EU numbering)
light chain (with the P2A rest): DTVLTQSPALAVSPGERVTISCRASDSVSTLMHWYQQKPGQQPKLLIYLASHLESGVPARFSGSGSGTDFTLTIDPVEADDTATYYCQQSWNDPWTFGGGTKLELKRTVAAPSVFIFPPSDEQLKSGTASVVCLLNNFYPREAKVQWKVDNALQSGNSQESVTEQDSKDSTYSLSSTLTLSKADYEKHKVYACEVTHQGLSSPVTKSFNRGECGSGATNFSLLKQAGDVEENPG
heavy chain: EVQLVESDGGLVQPGRSLKLPCAASGFTFSDYYMAWVRQAPTKGLEWVASISYDGSSTYYRDSVKGRFTISRDNAKSTLYLQMDSLRSEDTATYYCGRHSSYFDYWGQGVMVTVSSASTKGPSVFPLAPCSRSTSESTAALGCLVKDYFPEPVTVSWNSGALTSGVHTFPAVLQSSGLYSLSSVVTVPSSNFGTQTYTCNVDHKPSNTKVDKTVERKCCVECPPCPAPPVAGPSVFLFPPKPKDTLMISRTPEVTCVVVDVSKEDPEVQFNWYVDGVEVHNAKTKPREEQFNSTFRVVSVLTVVHQDWLNGKEYKCKVSNKGLPAPIEKTISKTKGQPREPQVYTLPPSREEMTKNQVSLTCLVKGFYPSDIAVEWESNGQPENNYKTTPPMLDSDGSFFLYSKLTVDKSRWQQGNVFSCSVMHEALHNHYTQKSLSLSPGKLEPPPSTVSNMATVAVLVVLGAAIVTGAVVAFVMKMRRRNTGGKGGDYALAPGSQTSDLSLPDCKVMVHDPHSLA
notes: as for B1
B3: human IgG2 anti-mouse CD40 surface displayed antibody, P271C (antibody, name in EU numbering)
light chain (with the P2A rest): DTVLTQSPALAVSPGERVTISCRASDSVSTLMHWYQQKPGQQPKLLIYLASHLESGVPARFSGSGSGTDFTLTIDPVEADDTATYYCQQSWNDPWTFGGGTKLELKRTVAAPSVFIFPPSDEQLKSGTASVVCLLNNFYPREAKVQWKVDNALQSGNSQESVTEQDSKDSTYSLSSTLTLSKADYEKHKVYACEVTHQGLSSPVTKSFNRGECGSGATNFSLLKQAGDVEENPG
heavy chain: EVQLVESDGGLVQPGRSLKLPCAASGFTFSDYYMAWVRQAPTKGLEWVASISYDGSSTYYRDSVKGRFTISRDNAKSTLYLQMDSLRSEDTATYYCGRHSSYFDYWGQGVMVTVSSASTKGPSVFPLAPCSRSTSESTAALGCLVKDYFPEPVTVSWNSGALTSGVHTFPAVLQSSGLYSLSSVVTVPSSNFGTQTYTCNVDHKPSNTKVDKTVERKCCVECPPCPAPPVAGPSVFLFPPKPKDTLMISRTPEVTCVVVDVSHEDCEVQFNWYVDGVEVHNAKTKPREEQFNSTFRVVSVLTVVHQDWLNGKEYKCKVSNKGLPAPIEKTISKTKGQPREPQVYTLPPSREEMTKNQVSLTCLVKGFYPSDIAVEWESNGQPENNYKTTPPMLDSDGSFFLYSKLTVDKSRWQQGNVFSCSVMHEALHNHYTQKSLSLSPGKLEPPPSTVSNMATVAVLVVLGAAIVTGAVVAFVMKMRRRNTGGKGGDYALAPGSQTSDLSLPDCKVMVHDPHSLA
notes: as for B1
B4: human IgG2 anti-mouse CD40 surface displayed antibody, S267A (antibody, name in EU numbering)
light chain (with the P2A rest): DTVLTQSPALAVSPGERVTISCRASDSVSTLMHWYQQKPGQQPKLLIYLASHLESGVPARFSGSGSGTDFTLTIDPVEADDTATYYCQQSWNDPWTFGGGTKLELKRTVAAPSVFIFPPSDEQLKSGTASVVCLLNNFYPREAKVQWKVDNALQSGNSQESVTEQDSKDSTYSLSSTLTLSKADYEKHKVYACEVTHQGLSSPVTKSFNRGECGSGATNFSLLKQAGDVEENPG
heavy chain: EVQLVESDGGLVQPGRSLKLPCAASGFTFSDYYMAWVRQAPTKGLEWVASISYDGSSTYYRDSVKGRFTISRDNAKSTLYLQMDSLRSEDTATYYCGRHSSYFDYWGQGVMVTVSSASTKGPSVFPLAPCSRSTSESTAALGCLVKDYFPEPVTVSWNSGALTSGVHTFPAVLQSSGLYSLSSVVTVPSSNFGTQTYTCNVDHKPSNTKVDKTVERKCCVECPPCPAPPVAGPSVFLFPPKPKDTLMISRTPEVTCVVVDVAHEDPEVQFNWYVDGVEVHNAKTKPREEQFNSTFRVVSVLTVVHQDWLNGKEYKCKVSNKGLPAPIEKTISKTKGQPREPQVYTLPPSREEMTKNQVSLTCLVKGFYPSDIAVEWESNGQPENNYKTTPPMLDSDGSFFLYSKLTVDKSRWQQGNVFSCSVMHEALHNHYTQKSLSLSPGKLEPPPSTVSNMATVAVLVVLGAAIVTGAVVAFVMKMRRRNTGGKGGDYALAPGSQTSDLSLPDCKVMVHDPHSLA
notes: as for B1
B5: human IgG2 anti-mouse CD40 surface displayed antibody, H268E (antibody, name in EU numbering)
light chain (with the P2A rest): DTVLTQSPALAVSPGERVTISCRASDSVSTLMHWYQQKPGQQPKLLIYLASHLESGVPARFSGSGSGTDFTLTIDPVEADDTATYYCQQSWNDPWTFGGGTKLELKRTVAAPSVFIFPPSDEQLKSGTASVVCLLNNFYPREAKVQWKVDNALQSGNSQESVTEQDSKDSTYSLSSTLTLSKADYEKHKVYACEVTHQGLSSPVTKSFNRGECGSGATNFSLLKQAGDVEENPG
heavy chain: EVQLVESDGGLVQPGRSLKLPCAASGFTFSDYYMAWVRQAPTKGLEWVASISYDGSSTYYRDSVKGRFTISRDNAKSTLYLQMDSLRSEDTATYYCGRHSSYFDYWGQGVMVTVSSASTKGPSVFPLAPCSRSTSESTAALGCLVKDYFPEPVTVSWNSGALTSGVHTFPAVLQSSGLYSLSSVVTVPSSNFGTQTYTCNVDHKPSNTKVDKTVERKCCVECPPCPAPPVAGPSVFLFPPKPKDTLMISRTPEVTCVVVDVSEEDPEVQFNWYVDGVEVHNAKTKPREEQFNSTFRVVSVLTVVHQDWLNGKEYKCKVSNKGLPAPIEKTISKTKGQPREPQVYTLPPSREEMTKNQVSLTCLVKGFYPSDIAVEWESNGQPENNYKTTPPMLDSDGSFFLYSKLTVDKSRWQQGNVFSCSVMHEALHNHYTQKSLSLSPGKLEPPPSTVSNMATVAVLVVLGAAIVTGAVVAFVMKMRRRNTGGKGGDYALAPGSQTSDLSLPDCKVMVHDPHSLA
notes: as for B1
B6: human IgG2 anti-mouse CD40 surface displayed antibody, S298L (antibody, name in EU numbering)
light chain (with the P2A rest): DTVLTQSPALAVSPGERVTISCRASDSVSTLMHWYQQKPGQQPKLLIYLASHLESGVPARFSGSGSGTDFTLTIDPVEADDTATYYCQQSWNDPWTFGGGTKLELKRTVAAPSVFIFPPSDEQLKSGTASVVCLLNNFYPREAKVQWKVDNALQSGNSQESVTEQDSKDSTYSLSSTLTLSKADYEKHKVYACEVTHQGLSSPVTKSFNRGECGSGATNFSLLKQAGDVEENPG
heavy chain: EVQLVESDGGLVQPGRSLKLPCAASGFTFSDYYMAWVRQAPTKGLEWVASISYDGSSTYYRDSVKGRFTISRDNAKSTLYLQMDSLRSEDTATYYCGRHSSYFDYWGQGVMVTVSSASTKGPSVFPLAPCSRSTSESTAALGCLVKDYFPEPVTVSWNSGALTSGVHTFPAVLQSSGLYSLSSVVTVPSSNFGTQTYTCNVDHKPSNTKVDKTVERKCCVECPPCPAPPVAGPSVFLFPPKPKDTLMISRTPEVTCVVVDVSHEDPEVQFNWYVDGVEVHNAKTKPREEQFNLTFRVVSVLTVVHQDWLNGKEYKCKVSNKGLPAPIEKTISKTKGQPREPQVYTLPPSREEMTKNQVSLTCLVKGFYPSDIAVEWESNGQPENNYKTTPPMLDSDGSFFLYSKLTVDKSRWQQGNVFSCSVMHEALHNHYTQKSLSLSPGKLEPPPSTVSNMATVAVLVVLGAAIVTGAVVAFVMKMRRRNTGGKGGDYALAPGSQTSDLSLPDCKVMVHDPHSLA
notes: as for B1
B7: human IgG2 anti-mouse CD40 surface displayed antibody, S267V/S298L (antibody, name in EU numbering)
light chain (with the P2A rest): DTVLTQSPALAVSPGERVTISCRASDSVSTLMHWYQQKPGQQPKLLIYLASHLESGVPARFSGSGSGTDFTLTIDPVEADDTATYYCQQSWNDPWTFGGGTKLELKRTVAAPSVFIFPPSDEQLKSGTASVVCLLNNFYPREAKVQWKVDNALQSGNSQESVTEQDSKDSTYSLSSTLTLSKADYEKHKVYACEVTHQGLSSPVTKSFNRGECGSGATNFSLLKQAGDVEENPG
heavy chain: EVQLVESDGGLVQPGRSLKLPCAASGFTFSDYYMAWVRQAPTKGLEWVASISYDGSSTYYRDSVKGRFTISRDNAKSTLYLQMDSLRSEDTATYYCGRHSSYFDYWGQGVMVTVSSASTKGPSVFPLAPCSRSTSESTAALGCLVKDYFPEPVTVSWNSGALTSGVHTFPAVLQSSGLYSLSSVVTVPSSNFGTQTYTCNVDHKPSNTKVDKTVERKCCVECPPCPAPPVAGPSVFLFPPKPKDTLMISRTPEVTCVVVDVVHEDPEVQFNWYVDGVEVHNAKTKPREEQFNLTFRVVSVLTVVHQDWLNGKEYKCKVSNKGLPAPIEKTISKTKGQPREPQVYTLPPSREEMTKNQVSLTCLVKGFYPSDIAVEWESNGQPENNYKTTPPMLDSDGSFFLYSKLTVDKSRWQQGNVFSCSVMHEALHNHYTQKSLSLSPGKLEPPPSTVSNMATVAVLVVLGAAIVTGAVVAFVMKMRRRNTGGKGGDYALAPGSQTSDLSLPDCKVMVHDPHSLA
notes: m1 with these Fc mutations (Eu numbering); copies: 2 + 2

In the first test the target is T1, Biotin-FcγRIIB (human FcγRIIB, Sino Biological) (human, UniProt P31994 43-217, limits assumed, biotin-labeled).
T1 construct: Used at 1 µg/ml with Streptavidin-APC for flow cytometry and sorting; also called CD32b
T1 sequence (looked up): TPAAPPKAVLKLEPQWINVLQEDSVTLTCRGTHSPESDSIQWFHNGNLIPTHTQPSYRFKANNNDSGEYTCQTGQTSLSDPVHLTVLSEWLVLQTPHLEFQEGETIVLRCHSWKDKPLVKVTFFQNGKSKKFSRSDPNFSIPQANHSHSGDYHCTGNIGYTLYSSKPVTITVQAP
Description: NGS after FACS sort of 3T3-displayed Library2 for biotin-FcγRIIB binding.
Turning to B1, the “Enrichment factor (percentage after sorting/percentage before sorting)” value came out at 1.54 and the “Increased factor (enrichment factor/wild-type enrichment factor)” value was 2.68.
In the case of B2, the “Enrichment factor (percentage after sorting/percentage before sorting)” value was determined as 1.32 and the “Increased factor (enrichment factor/wild-type enrichment factor)” value was 2.31.
Turning to B3, the “Enrichment factor (percentage after sorting/percentage before sorting)” value amounted to 17.1 and the “Increased factor (enrichment factor/wild-type enrichment factor)” value was found to be 29.9.
B4: the “Enrichment factor (percentage after sorting/percentage before sorting)” value stood at 3.17 and the “Increased factor (enrichment factor/wild-type enrichment factor)” value stood at 5.52.
The corresponding values for B5 are 1.69 and 2.94.

For the next test, the target named is T1, Biotin-FcγRIIB (human FcγRIIB, Sino …). Description: NGS after FACS sort of 3T3-displayed LibraryMix for biotin-FcγRIIB binding.
For the molecule B6, the “Enrichment factor (percentage after sorting/percentage before sorting)” value came out at 2.18 and the “Increased factor (enrichment factor/wild-type enrichment factor)” value turned out to be 2.91.
B7: the “Enrichment factor (percentage after sorting/percentage before sorting)” value turned out to be 2.09 and the “Increased factor (enrichment factor/wild-type enrichment factor)” value amounted to 2.8.

For the origin of these results see US20230220042A1 (SHANGHAI JIAO TONG UNIVERSITY SCHOOL OF MEDICINE, published 2023).
